Results: patent US6939707B2, “Isolated nucleic acid molecules which encode GAGE genes and uses thereof” (Ludwig Institute for Cancer Research, priority 1993, dated 2005)

B1: GAGE-1: cDNA coding for GAGE tumor rejection antigen precursor, SEQ ID NO: 1 (nucleic acid)
DNA: CTGCCGTCCGGACTCTTTTTCCTCTACTGAGATTCATCTGTGTGAAATATGAGTTGGCGAGGAAGATCGACCTATCGGCCTAGACCAAGACGCTACGTAGAGCCTCCTGAAATGATTGGGCCTATGCGGCCCGAGCAGTTCAGTGATGAAGTGGAACCAGCAACACCTGAAGAAGGGGAACCAGCAACTCAACGTCAGGATCCTGCAGCTGCTCAGGAGGGAGAGGATGAGGGAGCATCTGCAGGTCAAGGGCCGAAGCCTGAAGCTGATAGCCAGGAACAGGGTCACCCACAGACTGGGTGTGAGTGTGAAGATGGTCCTGATGGGCAGGAGATGGACCCGCCAAATCCAGAGGAGGTGAAAACGCCTGAAGAAGAGATGAGGTCTCACTATGTTGCCCAGACTGGGATTCTCTGGCTTTTAATGAACAATTGCTTCTTAAATCTTTCCCCACGGAAACCTTGAGTGACTGAAATATCAAATGGCGAGAGACCGTTTAGTTCCTATCATCTGTGGCATGTGAAGGGCAATCACAGTGTTAAAAGAAGACATGCTGAAATGTTGCAGGCTGCTCCTATGTTGGAAAATTCTTCATTGAAGTTCTCCCAATAAAGCTTTACAGCCTTCTGCAAAGAAAAAAAAAAAA
B2: GAGE-6: cDNA highly related to GAGE, from MZ2-MEL.43 library (nucleic acid)
DNA: GCCAGGGAGCTGTGAGGCAGTGCTGTGTGGTTCCTGCCGTCCGGACTCTTTTTCCTCTACTGAGATTCATCTGTGTGAAATATGAGTTGGCGAGGAAGATCGACCTATTATTGGCCTAGACCAAGGCGCTATGTACAGCCTCCTGAAGTGATTGGGCCTATGCGGCCCGAGCAGTTCAGTGATGAAGTGGAACCAGCAACACCTGAAGAAGGGGAACCAGCAACTCAACGTCAGGATCCTGCAGCTGCTCAGGAGGGAGAGGATGAGGGAGCATCTGCAGGTCAAGGGCCGAAGCCTGAAGCTGATAGCCAGGAACAGGGTCACCCACAGACTGGGTGTGAGTGTGAAGATGGTCCTGATGGGCAGGAGGTGGACCCGCCAAATCCAGAGGAGGTGAAAACGCCTGAAGAAGGTGAAAAGCAATCACAGTGTTAAAAGAAGACACGTTGAAATGATGCAGGCTGCTCCTATGTTGGAAATTTGTTCATTAAAATTCTCCCAATAAAGCTTTACAGCCTTCTGCAAAAAAAAAAAAAAAA
B3: GAGE-4: cDNA highly related to GAGE, from MZ2-MEL.43 library (nucleic acid)
DNA: CGCCAGGGAGCTGTGAGGCAGTGCTGTGTGGTTCCTGCCGTCCGGACTCTTTTTCCTCTACTGAGATTCATCTGTGTGAAATATGAGTTGGCGAGGAAGATCGACCTATTATTGGCCTAGACCAAGGCGCTATGTACAGCCTCCTGAAATGATTGGGCCTATGCGGCCCGAGCAGTTCAGTGATGAAGTGGAACCAGCAACACCTGAAGAAGGGGAACCAGCAACTCAACGTCAGGATCCTGCAGCTGCTCAGGAGGGAGAGGATGAGGGAGCATCTGCAGGTCAAGGGCCGAAGCCTGAAGCTGATAGCCAGGAACAGGGTCACCCACAGACTGGGTGTGAGTGTGAAGATGGTCCTGATGGGCAGGAGATGGACCCGCCAAATCCAGAGGAGGTGAAAACGCCTGAAGAAGGTGAAAAGCAATCACAGTGTTAAAAGAAGGCACGTTGAAATGATGCAGGCTGCTCCTATGTTGGAAATTTGTTCATTAAAATTCTCCCAATAAAGCTTTACAGCCTTCTGCAAAAAAAAAAAAAAAA
B4: GAGE-5: cDNA highly related to GAGE, from MZ2-MEL.43 library (nucleic acid)
DNA: AGCTGTGAGGCAGTGCTGTGTGGTTCCTGCCGTCCGGACTCTTTTTCCTCTACTGAGATTCATCTGTGTGAAATATGAGTTGGCGAGGAAGATCGACCTATTATTGGCCTAGACCAAGGCGCTATGTACAGCCTCCTGAAGTGATTGGGCCTATGCGGCCCGAGCAGTTCAGTGATGAAGTGGAACCAGCAACACCTGAAGAAGGGGAACCAGCAACTCAACGTCAGGATCCTGCAGCTGCTCAGGAGGGAGAGGATGAGGGAGCATCTGCAGGTCAAGGGCCGAAGCCTGAAGCTGATAGCCAGGAACAGGGTCACCCACAGACTGGGTGTGAGTGTGAAGATGGTCCTGATGGGCAGGAGATGGACCCGCCAAATCCAGAGGAGGTGAAAACGCCTGAAGAAGGTGAAAAGCAATCACAGTGTTAAAAGAAGGCACGTTGAAATGATGCAGGCTGCTCCTATGTTGGAAATTTGTTCATTAAAATTCTCCCAATAAAGCTTTACAGCCTTCTGCAAAGAAAAAAAAAAAA
B5: GAGE-3: cDNA highly related to GAGE, from MZ2-MEL.43 library (nucleic acid)
DNA: CTCATATTTCACACAGATGAGTTGGCGAGGAAGATCGACCTATTATTGGTCTAGGCCAATAATAGGTCGATCTTCCTCGCCAACTCATATTTCACACAGATGAATCTCAGTAGAGGAAAATCGACCTATTATTGGCCTAGACCAAGGCGCTATGTACAGCCTCCTGAAGTGATTGGGCCTATGCGGCCCGAGCAGTTCAGTGATGAAGTGGAACCAGCAACACCTGAAGAAGGGGAACCAGCAACTCAACGTCAGGATCCTGCAGCTGCTCAGGAGGGAGAGGATGAGGGAGCATCTGCAGGTCAAGGGCCGAAGCCTGAAGCTGATAGCCAGGAACAGGGTCACCCACAGACTGGGTGTGAGTGTGAAGATGGTCCTGATGGGCAGGAGATGGACCCGCCAAATCCAGAGGAGGTGAAAACGCCTGAAGAAGGTGAAAAGCAATCACAGTGTTAAAAGAAGGCACGTTGAAATGATGCAGGCTGCTCCTATGTTGGAAATTTGTTCATTAAAATTCTCCCAATAAAGCTTTACAGCCTTCTGCAAAGAAAAAAAAAAAA
B6: GAGE-2: cDNA highly related to GAGE, from MZ2-MEL.43 library (nucleic acid)
DNA: ACGCCAGGGAGCTGTGAGGCAGTGCTGTGTGGTTCCTGCCGTCCGGACTCTTTTTCCTCTACTGAGATTCATCTGTGTGAAATATGAGTTGGCGAGGAAGATCGACCTATCGGCCTAGACCAAGACGCTACGTAGAGCCTCCTGAAATGATTGGGCCTATGCGGCCCGAGCAGTTCAGTGATGAAGTGGAACCAGCAACACCTGAAGAAGGGGAACCAGCAACTCAACGTCAGGATCCTGCAGCTGCTCAGGAGGGAGAGGATGAGGGAGCATCTGCAGGTCAAGGGCCGAAGCCTGAAGCTCATAGCCAGGAACAGGGTCACCCACAGACTGGGTGTGAGTGTGAAGATGGTCCTGATGGGCAGGAGATGGACCCGCCAAATCCAGAGGAGGTGAAAACGCCTGAAGAAGGTGAAAAGCAATCACAGTGTTAAAAGAAGACACGTTGAAATGATGCAGGCTGCTCCTATGTTGGAAATTTGTTCATTAAAATTCTCCCAATAAAGCTTTACAGCCTTCTGCAAAGAAAAAAAAAAAA

System: CTL 22/23
Test: TNF production by CTL 22/23 on COS-7 cells cotransfected with HLA-A29 and GAGE cDNA
Assay type: cell-based, human
Details: COS-7 cells transfected with HLA-A29 and the cDNA, 24 hours (FIG. 7)
Description: (§1) Following this change in medium, COS cells were incubated for 24-48 hours at 37° C. Medium was then discarded, and 1000-3000 cells of CTL clone 76/6 were added, in 100 μl of Iscove's medium containing 10% pooled human serum supplemented with 20-30 U/ml of recombinant IL-2. Supernatant was removed after 24 hours, and TNF content was determined in an assay on WEHI cells, as described by Traversari et al., Immunogenetics 35: 145-152 (1992), the disclosure of which is incorporated by reference.
Once positive HLA-A29 clones were isolated, these were transfected into COS-7 using the DEAE-dextran chloroquine method out supra. In brief, 1.5×10^4 COS-7 cells were treated with 50 ng of plasmid pcDNA-I/Amp containing HLA-A29, and 100 ng of cDNA containing cDNA for one of the GAGE sequences mentioned supra, or one of the prior art MAGE or BAGE sequences in plasmid pcDNAα-I/Amp or pcDSR-α, respectively. The transfectants were then incubated for 24 hours at 37° C.
The transfectants were then tested for their ability to stimulate TNF production by CTLs, using the assay explained at the end of example, 4, supra.

Row | Molecule | stimulation of TNF production by CTL clone 22/23
1 | B1 | do not stimulate CTL clone 22/23
2 | B2 | high levels of TNF production
3 | B3 | high levels of TNF production
4 | B4 | high levels of TNF production
5 | B5 | high levels of TNF production
6 | B6 | do not stimulate CTL clone 22/23

System: CTL 76/6
Test: TNF release / recognition by CTL 76/6 of COS cells cotransfected with GAGE cDNA and HLA-Cw6 cDNA
Assay type: cell-based, human
Details: COS cells transfected with cDNA together with HLA-Cw6 cDNA (FIG. 2, FIG. 6)
Description: Following preparation of the library described in Example 3, the cDNA was transfected into eukaryotic cells. The transfections, described herein, were carried out in duplicate. Samples of COS-7 cells were seeded, at 15,000 cells/well into tissue culture flat bottom microwells, in Dulbecco's modified Eagles Medium (“DMEM”) supplemented with 10% fetal calf serum. The cells were incubated overnight at 37° C., medium was removed and then replaced by 50 μl/well of DMEM medium containing 10% Nu serum, 400 μg/ml DEAE-dextran, and 100 μM chloroquine, plus 100 ng of the plasmids. […] As a result, cDNA for each of the HLA molecules which could present the antigen (A1, B37, Cw6) was used, separately, to cotransfect the cells. Specifically, one of 28 ng of the gene encoding HLA-A1 cloned into pCD-SRα, 50 ng of cDNA for HLA-B37 in pcDNA 1/Amp, or 75 ng of cDNA for HLA-Cw6 in pcDNAI-Amp, using the same protocols as were used for transfeclion with the library.
Transfection was carried out in duplicate wells, but only 500 pools of the HLA-Cw6 transfectants could be tested in single wells. Following four hours of incubation at 37° C., the medium was removed, and replaced by 50 μl of PBS containing 10% DMSO. This medium was removed after two minutes and replaced by 200 μl of DMEM supplemented with 10% FCS.
as §1
The bacteria of the selected pool were cloned, and 600 clones were tested. Plasmid DNA was extracted therefrom, transfected into a new sample of COS cells in the same manner as described supra, and the cells were again tested for stimulation of CTL clone 76/6. Ninety-four positive clones were found. One of these, referred to as cDNA clone 2D6, was tested further. In a comparative test COS cells were transfected with cDNA clone 2D6 and the HLA-Cw6 cDNA, HLA-Cw6 cDNA alone, or cDNA 2D6 alone. Control cell lines MZ2-MEL F and MZ2-MEL F^+ were also used. TNF release into CTL supernatant was measured by testing it on WEHI cells, as referred to supra. The number of surviving WEHI cells was measured by optical density after incubation of the cells with MTT.
To assess whether the change at position 2 affected the antigenicity of the peptide, cDNA of the 6 GAGE cDNAs were individually transfected into COS cells together with the cDNA of HLA-Cw6, and the transfectants were tested for recognition by CTL 76/6 as described, supra. Only GAGE-1 and GAGE-2 transfected cells were recognized, showing that the modified peptide encoded by GAGE-3, 4, 5 and 6 was not antigenic in the context of this experiment.

Row | Molecule | recognition by CTL 76/6 (TNF release)
7 | B1 | recognized
8 | B2 | not antigenic
9 | B3 | not antigenic
10 | B4 | not antigenic
11 | B5 | not antigenic
12 | B6 | recognized

Same assay, conditions: COS cells transfected with cDNA together with HLA-Cw6 cDNA (FIG. 2, FIG. 6); listed as cDNA clone 2D6

Row | Molecule | recognition by CTL 76/6 (TNF release)
13 | B1 | stimulated TNF release
